In article PMC2881153:
Read-outs that look alike come from different tables or passages of the source.

How the values were obtained:
[1] = target: T1, Fl-Imp3p;Rh-Imp4p (Saccharomyces cerevisiae;Saccharomyces …, UniProt P32899;P53941 1-183;1-290, |); assay: ssFRET
T1 sequence 1: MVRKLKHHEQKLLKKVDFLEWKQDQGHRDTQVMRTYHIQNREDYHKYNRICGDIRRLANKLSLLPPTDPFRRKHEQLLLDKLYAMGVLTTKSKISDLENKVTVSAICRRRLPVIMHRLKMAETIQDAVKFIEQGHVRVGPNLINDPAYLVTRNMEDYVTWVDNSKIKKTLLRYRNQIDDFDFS
T1 sequence 2: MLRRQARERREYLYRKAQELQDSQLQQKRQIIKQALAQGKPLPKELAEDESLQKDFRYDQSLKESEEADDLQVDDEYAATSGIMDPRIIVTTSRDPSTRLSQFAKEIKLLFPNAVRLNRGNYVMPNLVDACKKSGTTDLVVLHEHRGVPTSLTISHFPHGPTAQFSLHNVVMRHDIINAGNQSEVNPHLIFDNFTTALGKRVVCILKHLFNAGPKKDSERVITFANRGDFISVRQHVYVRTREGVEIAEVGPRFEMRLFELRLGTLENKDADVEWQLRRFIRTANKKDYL

[2] = target: T2, Imp3p (Saccharomyces cerevisiae, UniProt P32899 1-183); assay: trFRET
T2 sequence: T1 sequence 1

[3] = target: T3, Imp3p;Imp4p (Saccharomyces cerevisiae;Saccharomyces …, UniProt P32899;P53941 1-183;1-290, |); assay: trFRET
T3 sequence 1: T1 sequence 1
T3 sequence 2: T1 sequence 2

[4] = target: T3, Imp3p;Imp4p; assay: trFRET; remark: listed apart in the source

GGACGUACUUCAUAGGAUCAUUUCUAUAGGAAUCGUCACUCUUUGACU (structured_RNA) [U3 MINI]
binding result [1]: binds

GGACGUACUUCAUAGGAUCAUUUCUAUAGGAAUCGUCACUCUUUGACU (structured_RNA) [Fl-U3 MINI-Rh]
binding result [2]: binds | binding result [3]: binds

B1: Fl-U3 MINI-Rh with 18S (dsRNA)
RNA 1: GGACGUACUUCAUAGGAUCAUUUCUAUAGGAAUCGUCACUCUUUGACU
RNA 2: GGUUGAUCCUGCCAGUA
binding result [4]: binds
